Assays:
[1] = test system: MmsR (LysR-type transcriptional regulator) (Pseudomonas denitrificans); assay: cell_activity; details: GFP reporter; 25 mM 3-HP; 2.6 to 90.2 x10^3 AU/OD
[2] = test system: MmsR (LysR-type transcriptional regulator) (Pseudomonas denitrificans); assay: EMSA; details: per monomeric MmsR
[3] = test system: HpdR (LysR-type transcriptional regulator, 304 aa) (Pseudomonas denitrificans); assay: cell_activity; details: hpdH mRNA by 3-HP in wild type; 1.20 in hpdR deletion; 60.5 on complementation

| Sequence | Kd ([2]; no 3-HP) [nM] | Kd ([2]; with 3-HP (25 mM)) [nM] | further results |
| --- | --- | --- | --- |
| CCTCGAATGTGCAAAAACGCAGACCATACTTGCACATCACCGCATTGAGTACATCAAAAATGCACTGTTAGGATCGATCCAGACAACAAAAAAGCCACAGGCTGGGAGAATCCCG (double strand) [BS_wt (PmmsA reporter)] | – | – | activity (fold induction) [1]: 34.6 |
| GTCAGCCTCAGCGCACCTCGAATGTGCAAAAACGCAGACCACTTGCACATCACCGCATTGAGTACATCAAAAATCACTGTTAGGATCGATCCAGACAACAAAAAAGCCACAGGCTGGGAGAATCCCG (double strand) [F12 (PmmsA, intact O1 and O2)] | – | – | Kd ([2]; no 3-HP, 0.4 nM DNA): 10.7 nM; Kd ([2]; with 3-HP (25 mM), 0.4 nM DNA): 5.4 nM |
| GTCAGCCTCAGCGCACCTCGAATGTGCAAAAACGCAGACCATACTTGCACATCACCGCATTGAGTACATCAATCCTTGCTTGTTAGGATCGCGCCCAGGCACAAAAAAGCCACAGGCTGGGAGAATCCCG (double strand) [F12M (O2 mutated)] | 18.6 | 19.8 | – |
| GTCAGCCTCAGCGCACCTCGATCCTTGCTAAACGCAGACCATACCGCCCAGGCACCGCATTGAGTACATCAAAAATGCACTGTTAGGATCGATCCAGACAACAAAAAAGCCACAGGCTGGGAGAATCCCG (double strand) [F1M2 (O1 mutated)] | 79.8 | 316 | – |
| TGTGGGAGCGGGCGTGCCCGCGAAGAGGCCAGCACAGACTTACCACTGTGCTAAAACGCACAGCGGCTGCGCGAAATCTCGTGTTTCCTCCACGAAATTACTCACTAAGATGGATCGGGACAAGAATAATAATCAGGCCCGAGGTTGCAC (double strand) [PhpdH (PC3) promoter] | – | – | activity (fold induction) [3]: 43 |

From patent US20200354728
